Test results as given in US20150071923A1 (published 2015).
Where two headings read alike, the source gives them in different places.

B1: huY104D-MMAE antibody-drug conjugate (antibody, human IgG1, kappa)
heavy: not shown
light: AIQLTQSPSSLSASVGDRVTITCRASQSIGTNIHWYLQKPGQSPQLLIYYASESISGIPDRFSGSGSGTDFTLTISRLEPEDFAVYYCQQNNNWPTTFGQGTKVEIKRTVAAPSVFIFPPSDEQLKSGTASVVCLLNNFYPREAKVQWKVDNALQSGNSQESVTEQDSKDSTYSLSSTLTLSKADYEKHKVYACEVTHQGLSSPVTKSFNRGEC
modifications: MMAE conjugated as described in Example 18 (maleimidocaproyl-vcPAB linker on reduced disulfide cysteines)
B2: humanized Y104D/Q111P cetuximab mutant antibody (DP-h7) (antibody, human IgG1, kappa)
heavy: not shown
light: B1 light
notes: Full-length IgG; also called DP-h07
B3: huY104E-MMAE antibody-drug conjugate (antibody, human IgG1, kappa)
heavy: not shown
light: B1 light
modifications: MMAE conjugated as described in Example 18 (maleimidocaproyl-vcPAB linker on reduced disulfide cysteines)
B4: humanized Y104D anti-EGFR antibody (D-h) (antibody, human IgG1, kappa)
heavy: not shown
light: B1 light
notes: Full-length IgG; also called huY104D; D-h07
B5: humanized Y104E anti-EGFR antibody (E-h) (antibody, human IgG1, kappa)
heavy: not shown
light: B1 light
notes: Full-length IgG; also called huY104E; E-h07
B6: humanized Y104E/Q111P anti-EGFR antibody (EP-h) (antibody, human IgG1, kappa)
heavy: not shown
light: B1 light
notes: Full-length IgG; also called EP-h07
B7: flag-tagged humanized T030F/Y104D/Q111P mutant anti-EGFR antibody (FDP-h3) (antibody, human IgG1, kappa, V domains shown)
VH: EVQLVQSGAEVKKPGATVKISCKVSGFSLFNYGVHWVRQATGQGLEWMGVIWSGGNTDYNTPFTSRFTISRDDSKNTAYLQMNSLKTEDTAVYYCARALTYYDDEFAYWGPGTLVTVSS
VL: AIQLTQSPSSLSASVGDRVTITCRASQSIGTNIHWYLQKPGQSPQLLIYYASESISGIPDRFSGSGSGTDFTLTISRLEPEDFAVYYCQQNNNWPTTFGQGTKVEIKR
notes: also called FDP-h03

What was measured:
[1] = biological target: human epidermal growth factor receptor (EGFR) on cells and tissues (human, UniProt P00533 25-1210); experiment: cell-based or functional assay
[2] = biological target: T1, His-tagged soluble extracellular domain of EGFR (sEGFR-H6; Sino Biologics, Cat #10001-H08H) (human, UniProt P00533 25-645); experiment: ELISA on coated sEGFR-H6; pH 6.5, 16.7 mM lactic acid, 25% human serum
T1 construct: Bought protein; also called EGFR sECD; soluble extracellular domain of EGF receptor

[3] = biological target: T1, His-tagged soluble extracellular domain …; experiment: pH-sensitive ELISA, transfected supernatant adjusted to 4 ng/mL
[4] = biological target: T1, His-tagged soluble extracellular domain …; experiment: pH-sensitive ELISA, transfected supernatant adjusted to 1 ng/mL
[5] = biological target: T1, His-tagged soluble extracellular domain …; experiment: ELISA on coated sEGFR-H6; pH 7.4, 1 mM lactic acid, 25% human serum
[6] = biological target: T1, His-tagged soluble extracellular domain …; experiment: ELISA on coated sEGFR-H6; pH 6.0, 16.7 mM lactic acid, 25% human serum
[7] = biological target: T1, His-tagged soluble extracellular domain …; experiment: pH-sensitive ELISA, transfected supernatant adjusted to 2 ng/mL
[8] = biological target: T1, His-tagged soluble extracellular domain …; experiment: pH-sensitive ELISA on coated sEGFR-H6
[9] = biological target: T1, His-tagged soluble extracellular domain …; experiment: ELISA on coated sEGFR-H6; pH 6.0, 16.7 mM lactic acid, 25% human serum; remark: listed apart in the source
[10] = biological target: T1, His-tagged soluble extracellular domain …; experiment: ELISA on coated sEGFR-H6; pH 6.5, 16.7 mM lactic acid, 25% human serum; remark: listed apart in the source
[11] = biological target: T1, His-tagged soluble extracellular domain …; experiment: pH-sensitive ELISA on coated sEGFR-H6; remark: listed apart in the source
[12] = biological target: T1, His-tagged soluble extracellular domain …; experiment: ELISA on coated sEGFR-H6; pH 7.4, 1 mM lactic acid, 25% human serum; remark: listed apart in the source
[13] = biological target: T1, His-tagged soluble extracellular domain …; experiment: ELISA on coated sEGFR-H6; pH 6.0, 16.7 mM lactic acid, 25% human serum; remark: listed apart in the source
[14] = biological target: T1, His-tagged soluble extracellular domain …; experiment: pH-sensitive ELISA on coated sEGFR-H6; remark: listed apart in the source
[15] = biological target: T1, His-tagged soluble extracellular domain …; experiment: ELISA on coated sEGFR-H6; pH 6.5, 16.7 mM lactic acid, 25% human serum; remark: listed apart in the source
[16] = biological target: T1, His-tagged soluble extracellular domain …; experiment: ELISA on coated sEGFR-H6; pH 7.4, 1 mM lactic acid, 25% human serum; remark: listed apart in the source

Row | Binder | D (maximum) of 4-parameter fit [2] [OD450] | EC50 [2] [ng/mL] | D (maximum) of 4-parameter fit [5] [OD450] | EC50 [5] [ng/mL] | D (maximum) of 4-parameter fit [6] [OD450] | EC50 [6] [ng/mL] | ratio of binding activity pH 6.0/7.4 (inverse EC50) [8] | ratio of binding activity pH 6.5/7.4 (inverse EC50) [8] | D (maximum) of 4-parameter fit [9] [OD450] | EC50 [9] [ng/mL] | D (maximum) of 4-parameter fit [10] [OD450] | EC50 [10] [ng/mL] | ratio of binding activity pH 6.0/7.4 (inverse EC50) [11] | ratio of binding activity pH 6.5/7.4 (inverse EC50) [11] | D (maximum) of 4-parameter fit [12] [OD450] | EC50 [12] [ng/mL] | further results
1 | B1 | – | – | – | – | – | – | – | – | – | – | – | – | – | – | – | – | IC50 for cell growth inhibition of keratinocytes at pH 7.4 [1]: ~17 nM; cell growth inhibition of HT29 cells at pH 6.8; concentration for about 50% inhibition [1]: ~22 nM; cell growth inhibition of HT29 cells at pH 6.8; maximum concentration tested [1]: ~80%
2 | B2 | 3.83 | 6.91 | 3.14 | 33.6 | 3.83 | 4.15 | 8.1 | 4.86 | – | – | – | – | – | – | – | – | pH 6.0/pH 7.4 OD ratio [3]: 11.3; pH 6.0/pH 7.4 OD ratio [4]: 17.4; pH 6.0/pH 7.4 OD ratio [7]: 7.21
3 | B3 | – | – | – | – | – | – | – | – | – | – | – | – | – | – | – | – | IC50 for cell growth inhibition of keratinocytes at pH 7.4 [1]: ~5.4 nM; cell growth inhibition of HT29 cells at pH 6.8; concentration for about 50% inhibition [1]: ~22 nM; cell growth inhibition of HT29 cells at pH 6.8; maximum concentration tested [1]: ~80%
4 | B4 | 3.84 | 7.57 | 3.45 | 30.2 | 3.89 | 4.87 | 6.2 | 3.99 | 3.88 | 6.77 | 3.82 | 12.7 | 8.33 | 4.44 | 2.03 | 56.4 | –
5 | B5 | 3.85 | 5.87 | 3.23 | 46.1 | 3.92 | 3.18 | 14.5 | 7.85 | 3.87 | 4.82 | 3.94 | 9.82 | 12.3 | 6.04 | 1.44 | 59.3 | –
6 | B6 | 3.89 | 6.37 | 2.91 | 69.8 | 3.92 | 3.92 | 17.8 | 11 | 3.91 | 4.28 | 3.93 | 12.1 | 48.8 | 17.3 | 1.83 | 209 | –
7 | B7 | – | – | – | – | – | – | – | – | – | – | – | – | – | – | – | – | D (maximum) of 4-parameter fit [13]: 3.79 OD450; EC50 [13]: 4.33 ng/mL; ratio of binding activity pH 6.0/7.4 (inverse EC50) [14]: 7.53; ratio of binding activity pH 6.5/7.4 (inverse EC50) [14]: 6.69; D (maximum) of 4-parameter fit [15]: 3.76 OD450; EC50 [15]: 4.87 ng/mL; D (maximum) of 4-parameter fit [16]: 3.65 OD450; EC50 [16]: 32.6 ng/mL
